Experimental data taken from patent publication US20180127478A1.

Molecular target: GH receptor (on Nb2 cells)
Assay: cell-based or functional assay

Nb2 cell proliferation, EC50: 0.166 nM
Substance: commercial recombinant hGH (Somatropin, United States Pharmacopeia) (from UniProt P01241 27-217) (ligand)
